Two molecules from article PMC9262599, “DNA G-quadruplex structure participates in regulation of lipid metabolism through acyl-CoA binding protein” can be followed below.

Series [1] concerns the target T1, BmLARK (Bombyx mori, UniProt Q5I7M6 1-343). Nature of the series: EMSA; 50 mM K+; 10 mM Tris pH 7.5, 50 mM KCl, 1 mM DTT, room temperature, 20 min; 2 uM probe, 2 ug BmLARK or 1 ug BG4 in 20 ul; 4% PAGE on ice. The settings on record: protein: recombinant; tags: GST (pGEX-6P-1); label: 5' 6-FAM. In general terms: In EMSA bound probe runs differently from free probe, usually more slowly.

The target of series [2] is T1, BmLARK. Nature of the series: EMSA; 50 mM K+; reduced by unlabelled same-sequence competitor; 10 mM Tris pH 7.5, 50 mM KCl, 1 mM DTT, room temperature, 20 min; 2 uM probe, 2 ug BmLARK or 1 ug BG4 in 20 ul; 4% PAGE on ice. The settings on record: protein: recombinant; tags: GST (pGEX-6P-1); label: 5' 6-FAM; G-quadruplex.

T1 sequence (Q5I7M6 entry or part of it): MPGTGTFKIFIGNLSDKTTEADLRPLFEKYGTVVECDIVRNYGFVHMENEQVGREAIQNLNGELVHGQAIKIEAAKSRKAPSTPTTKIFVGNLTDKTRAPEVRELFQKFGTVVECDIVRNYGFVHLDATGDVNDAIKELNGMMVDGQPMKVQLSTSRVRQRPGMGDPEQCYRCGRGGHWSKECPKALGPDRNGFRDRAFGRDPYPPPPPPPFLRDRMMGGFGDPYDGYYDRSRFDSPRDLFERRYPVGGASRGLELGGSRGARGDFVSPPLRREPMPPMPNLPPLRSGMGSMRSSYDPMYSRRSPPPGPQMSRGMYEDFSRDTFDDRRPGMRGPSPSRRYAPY

As to GTCGTGAAGGTGTTGATGGAGTGTAGGTT (ssDNA) [FAM-Mut BmACBP G4], in the series with BmLARK [1], the binding result is “no binding”.

With GTCGGGAAGGGGTTGGGGGGGGGTAGGTT (structured_DNA) [FAM-BmACBP G4 (folded with K+)], the binding result with BmLARK [2] is given as “binds”.
